{"source": "paper PMC4072508", "about": "“Genome-Wide Prediction and Validation of Peptides That Bind Human Prosurvival Bcl-2 Proteins” (PLoS Computational Biology, 2014)", "key": {"[1]": {"molecular_target": "T1, Mcl-1 (Homo sapiens, UniProt Q07820)", "T1 construct": "myc-Mcl-1 SPOT array & FP; made in house", "T1 sequence (Q07820 with tags, fused parts or gaps)": "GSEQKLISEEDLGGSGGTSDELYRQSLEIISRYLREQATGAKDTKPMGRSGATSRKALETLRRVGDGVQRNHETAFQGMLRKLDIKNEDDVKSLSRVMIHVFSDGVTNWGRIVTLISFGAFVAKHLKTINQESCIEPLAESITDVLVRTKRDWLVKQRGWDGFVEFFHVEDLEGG", "test": "LUMIER full-length protein interaction", "type": "binding", "settings": "LUMIER results for Mcl-1, Z-score relative to Gaussian fit of the data", "protocol": "(§1) The LUMIER assay was carried out as previously described with the following modifications. A stable cell line expressing receptor tagged on the N-terminus with Nanoluc luciferase was created (the prey). […] Each bait construct was transfected into the receptor-luciferase cells in a 96-well format and after 48 hours the cells were lysed and transferred to 384-well plates coated with anti-FLAG. After incubation and washing, luminescence was measured to quantify how much receptor-luciferase was captured by the bait protein. Anti-Flag ELISA signal was used to exclude bait proteins that were not expressed. The experiment was carried out two times, each in duplicate."}, "[2]": {"molecular_target": "T2, Bcl-xL (Homo sapiens, UniProt Q07817)", "T2 construct": "myc-Bcl-xL SPOT array & FP; made in house", "T2 sequence (Q07817 with tags, fused parts or gaps)": "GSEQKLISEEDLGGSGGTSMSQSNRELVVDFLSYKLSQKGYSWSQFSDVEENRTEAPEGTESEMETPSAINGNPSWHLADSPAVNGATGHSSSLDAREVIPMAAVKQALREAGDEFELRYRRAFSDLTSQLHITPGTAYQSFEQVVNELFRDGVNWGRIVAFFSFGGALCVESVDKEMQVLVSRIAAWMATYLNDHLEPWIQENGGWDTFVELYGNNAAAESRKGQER", "test": "LUMIER full-length protein interaction", "type": "binding", "settings": "LUMIER results for Bcl-xL, Z-score of the interaction relative to the Gaussian fit of the data", "protocol": "as §1"}}}
{"molecule": "MTA2 (protein, UniProt O94776 1-668, looked up) Metastasis-associated protein …: MAANMYRVGDYVYFENSSSNPYLVRRIEELNKTANGNVEAKVVCLFRRRDISSSLNSLADSNAREFEEESKQPGVSEQQRHQLKHRELFLSRQFESLPATHIRGKCSVTLLNETDILSQYLEKEDCFFYSLVFDPVQKTLLADQGEIRVGCKYQAEIPDRLVEGESDNRNQQKMEMKVWDPDNPLTDRQIDQFLVVARAVGTFARALDCSSSIRQPSLHMSAAAASRDITLFHAMDTLQRNGYDLAKAMSTLVPQGGPVLCRDEMEEWSASEAMLFEEALEKYGKDFNDIRQDFLPWKSLASIVQFYYMWKTTDRYIQQKRLKAAEADSKLKQVYIPTYTKPNPNQIISVGSKPGMNGAGFQKGLTCESCHTTQSAQWYAWGPPNMQCRLCASCWIYWKKYGGLKTPTQLEGATRGTTEPHSRGHLSRPEAQSLSPYTTSANRAKLLAKNRQTFLLQTTKLTRLARRMCRDLLQPRRAARRPYAPINANAIKAECSIRLPKAAKTPLKIHPLVRLPLATIVKDLVAQAPLKPKTPRGTKTPINRNQLSQNRGLGGIMVKRAYETMAGAGVPFSANGRPLASGIRSSSQPAAKRQKLNPADAPNPVVFVATKDTRALRKALTHLEMRRAARRPNLPLKVKPTLIAVRPPVPLPAPSHPASTNEPIVLED", "values": [{"measurement": "z-score 1.2", "setting": "[1]; experiment 1, duplicate 2", "value": 0.31}, {"measurement": "z-score 2.1", "setting": "[1]; experiment 2, duplicate 1", "value": 0.117}, {"measurement": "z-score 2.2", "setting": "[1]; experiment 2, duplicate 2", "value": 0.04852}, {"measurement": "z-score 1.1", "setting": "[2]; experiment 1, duplicate 1", "value": 11.5243}, {"measurement": "z-score 1.2", "setting": "[2]; experiment 1, duplicate 2", "value": 0.8005}, {"measurement": "z-score 2.1", "setting": "[2]; experiment 2, duplicate 1", "value": -0.1835}, {"measurement": "z-score 2.2", "setting": "[2]; experiment 2, duplicate 2", "value": 0.205}]}
